US20070134236A1 (Biogen, published 2007)

Assays:
human DC-CK = target: T1, human DC-CK (human, UniProt P55774 21-89); assay: ELISA, supernatant
T1 sequence (looked up): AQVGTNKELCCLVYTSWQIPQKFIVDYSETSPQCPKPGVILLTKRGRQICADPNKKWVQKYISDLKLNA
Protocol: (§1) MaxiSorp 384 well plates were coated with 15-20 μl antigen in PBS. Recombinant purified human antigens included: MCP-1, MCP-2, MCP-3, MCP-4, IL-8, eotaxin, fractalkine, Gcp-2, DC-CK (Gcp-2 and DC-CK are also chemokines). Plates were incubated with antigen for 2 hours at 37° C. or overnight at 4° C. Non-specific sites were blocked with 80 μl/well of 1% BSA/PBS for 1 hour at room temperature. Plates were washed and 15 μl of hybridoma supernatant was added to each well and incubated for 1 hour at room temperature. Plates were washed and wells were incubated with 20 μl/well of a 1:25 000 dilution of goat anti-mouse IgG peroxidase conjugate (Jackson Catalog Number 515-036-003). Plates were incubated for 1 hour at room temperature, washed, and 20 μl/well of substrate (TMB, tetramethylbenzidine, Jackson, Catalog Number 515-036-062) was added. Reaction was allowed to proceed and stopped by addition of 20 μl/well of 2M H₂SO₄. Reactive clones were picked for further analysis. Isotyping of hybridoma supernatants was performed by antigen-dependent ELISA. Briefly, wells were coated with 50 μl of human MCP-1 (5 μg/ml) for 1 hour at 37° C. Wells were washed 4 times and blocked with PBS/1% BSA. Isotyping of hybridoma supernatants was then performed using a mouse immunoglobulin screening/isotyping kit (Zymed Laboratories, San Francisco, —CA) as recommended by the manufacturer.

human Gcp-2 = human Gcp-2 (human, UniProt P80162 38-114, limits assumed); assay: ELISA, supernatant
Protocol: as §1

human fractalkine = target: T2, human fractalkine (human, UniProt P78423 25-100, limits assumed); assay: ELISA, supernatant
T2 sequence (looked up): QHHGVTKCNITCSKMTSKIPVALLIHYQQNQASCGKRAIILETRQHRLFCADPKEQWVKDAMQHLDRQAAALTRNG
Protocol: as §1

human MCP-1 [1] = target: T3, human MCP-1 (human, UniProt P13500 24-99); assay: KinExA, in solution
T3 construct: also called hMCP-1; huMCP-1
Protocol: (§2) Polymethylmethacrylate beads activated with NHS were coated with 10 μg recombinant human MCP-1 in 1 ml buffer. The beads were packed into a column in the KinExA instrument for each sample. This packed bead column is able to capture free MCP mAb or Fab flowed through the column. The amount of free mAb or Fab in solution was determined using a secondary goat anti-mouse heavy and light chain IgG-Cy5 conjugate.
(§3) A fixed amount of 11K2 mAb, 1A1 mAb, 11K2 Fab, or 1A1 Fab was incubated with various amounts of human MCP-1, MCP-2 or MCP-3 for three hours. The amount of uncomplexed free antibody remaining in solution was determined by flowing these mixtures over the MCP-1-loaded bead column and labeling with the Cy5 secondary antibody. The fluorescent signal was plotted against the MCP concentration and the affinity was determined using a quadratic curve fit

human MCP-4 = target: T4, human MCP-4 (human, UniProt Q99616 24-98, limits assumed); assay: ELISA, purified mAb
T4 construct: also called hMCP-4
Protocol: (§4) ELISA specificity assays were performed using purified monoclonal antibodies to confirm the binding specificities of the supernatant MCP-specific monoclonal antibodies described above. Antibodies were purified by Protein A affinity column chromatography, according to standard methods known in the art.
(§5) ELISA was performed as previously described in Example 1. Briefly, MaxiSorp 384 well plates were coated with 15-20 μl antigen in PBS. Recombinant purified human antigens included: MCP-1, MCP-2, MCP-3, MCP-4, IL-8, eotaxin, murine MCP-1 (JE), murine MCP-3, murine MCP-5, and rat MCP-1. All antigens, including MCP-3, were immobilized. Plates were washed and purified monoclonal antibody (10 μg/ml) was added to each well and incubated for 1 hour at room temperature. Plates were washed and wells were incubated with 20 μl/well of a 1:25,000 dilution of goat anti-mouse IgG peroxidase conjugate (Jackson Catalog Number 515-036-003). Plates were incubated for 1 hour at room temperature, washed, and 20 μl/well of substrate (, tetramethylbenzidine, Jackson, Catalog Number 515-036-062) was added. Reaction was allowed to proceed and stopped by addition of 20 μl/well of 2M H₂SO₄. Antibodies 1A1 bound specifically to hMCP-1, hMCP-2, hMCP-3, and mMCP-1. Antibodies 11K2, 4N4, 5A13, 6D21, 615, and 7H1 bound specifically to hMCP-1, hMCP-2, hMCP-3, mMCP-1, mMCP-3, and mMCP-5.

human eotaxin = target: T5, human eotaxin (human, UniProt P51671 24-97); assay: ELISA, purified mAb
T5 construct: also called hEotaxin
Protocol: as §4, §5

human IL-8 = target: T6, human IL-8 (human, UniProt P10145 28-99, limits assumed); assay: ELISA, purified mAb
T6 construct: also called hIL8
Protocol: as §4, §5

human MCP-2 [2] = target: T7, human MCP-2 (human, UniProt P80075 24-99); assay: KinExA, in solution; intact bivalent mAb, not Fab
T7 construct: also called hMCP-2; huMCP-2
T7 sequence (looked up): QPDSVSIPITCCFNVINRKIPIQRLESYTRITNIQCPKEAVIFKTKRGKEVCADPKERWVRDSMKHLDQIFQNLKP
Protocol: as §2, §3

human MCP-1 [3] = target: T3, human MCP-1; assay: ELISA on plate-coated human MCP-1, anti-human IgG-HRP; y axis unlabelled, OD 405 nm per paragraph 382
Protocol: (§6) Binding specificities of chimeric 11K2 and the four versions of humanized 11K2 (H1-L1, H1-L2, H2-L1, and H2-L2) were determined by ELISA, according to the protocol described in Example 1.
(§7) ELISA plates (Corning, Inc. Cat#3369) were coated with 50 ng MCP-1 per well overnight at 4° C. Plates were washed then blocked with PBS/5% milk for 1.5 hrs at 25° C. Another wash was followed by incubation with the 11K2 mAbs (or 3G9 isotype control) at the concentrations indicated for 1 hr at 25° C. After washing, the plates were incubated with secondary antibody (anti-human IgG-HRP, Jackson Immunoresearch Cat#109-036-088) for 1 hr at 25° C. Plates were then washed and developed using the ABTS Peroxidase Substrate Kit (Vector Laboratories Cat#SK-4500). OD (405 nm) values were plotted as a function of 11K2 mAb concentration.

murine MCP-1 (JE) = target: T8, murine MCP-1 (JE) (mouse, UniProt P10148 24-148); assay: ELISA on plate-coated murine MCP-1, anti-human IgG-HRP; y axis unlabelled, OD 405 nm per paragraph 382
T8 construct: also called mMCP-1 (JE); muMCP-1
Protocol: as §6, §7

human MCP-2 [4] = target: T7, human MCP-2; assay: KinExA, in solution
Protocol: as §2, §3

human MCP-2 [5] = target: T7, human MCP-2; assay: ELISA on immobilised MCP-2, absorbance 450 nm
human MCP-3 = target: T9, human MCP-3 (human, UniProt P80098 24-99); assay: ELISA
T9 construct: also called hMCP-3

B1: mouse monoclonal antibody 1A1 (antibody, V domains shown)
VH: EVQLQQSGAELVRSGASVKLSCTASGFNIKDNYMHWVKQRPEQGLEWIGWIDPENGDTEYAPKFQGKATMTADTSSNTAYLQLSSLTSEDTAVYYCNTWAYYGTSYGGFAYWGQGTTVTVSS
VL: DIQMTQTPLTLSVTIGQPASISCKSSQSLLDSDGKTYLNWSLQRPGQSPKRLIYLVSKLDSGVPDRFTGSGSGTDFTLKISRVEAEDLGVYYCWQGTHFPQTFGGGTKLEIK
notes: mouse IgG1; also called 1A1.1; mu1A1
binding result (human DC-CK): no binding | binding result (human Gcp-2): no binding | binding result (human fractalkine): no binding | Kd (human MCP-1 [1]): < 0.7 pM | binding result (human MCP-4): no binding (tested: 10 µg/ml) | binding result (human eotaxin): no binding (tested: 10 µg/ml) | binding result (human IL-8): no binding (tested: 10 µg/ml) | Kd (human MCP-2 [2]): 1.2 pM

B2: chimeric 11K2 antibody (antibody, human IgG1, kappa, V domains shown)
VH: EVQLQQSGAELVKAGASVKLSCPASGLNIKDTYMHWVKQRPEQGLEWIGRIDPANGNTKFDPKFQGKATITADTSSNTAYLQLSSLTSEDTAVYYCARGVFGFFDYWGQGTTLTVSS
VL: DIQMTQSSSSFSVSLGDRVTITCKATEDIYNRLAWYQQKPGSAPRLLISGATSLETGVPSRFSGSGSGKDYTLSITSLQTEDVATYYCQQFWSAPYTFGGGTKLEIKR
notes: murine 11K2 variable domains with human IgG1 and kappa constant regions; also called Chimera; ch11K2
EC50 (read off the curve) (human MCP-1 [3]): ~0.02 µg/mL | EC50 (read off the curve) (murine MCP-1 (JE)): ~0.02 µg/mL

B3: mouse monoclonal antibody 11K2 (antibody, V domains shown)
VH: EVQLQQSGAELVKAGASVKLSCPASGLNIKDTYMHWVKQRPEQGLEWIGRIDPANGNTKFDPKFQGKATITADTSSNTAYLQLSSLTSEDTAVYYCARGVFGFFDYWGQGTTLTVSS
VL: DIQMTQSSSSFSVSLGDRVTITCKATEDIYNRLAWYQQKPGSAPRLLISGATSLETGVPSRFSGSGSGKDYTLSITSLQTEDVATYYCQQFWSAPYTFGGGTKLEIK
notes: mouse IgG1; also called 11K2.1; mu11K2
binding result (human DC-CK): no binding | binding result (human Gcp-2): no binding | binding result (human fractalkine): no binding | Kd (human MCP-1 [1]): < 0.4 pM | Kd (human MCP-2 [4]): 18 pM | binding result (human MCP-4): no binding (tested: 10 µg/ml) | binding result (human eotaxin): no binding (tested: 10 µg/ml) | binding result (human IL-8): no binding (tested: 10 µg/ml)

B4: humanized 11K2 H1-L1 (antibody, human IgG1, kappa, V domains shown)
VH: QVQLVQSGAEVKKPGSSVKVSCKASGLNIKDTYMHWVRQAPGQGLEWIGRIDPANGNTKFDPKFQGRATITADTSTSTAYMELSSLRSEDTAVYYCARGVFGFFDYWGQGTTVTVSS
VL: DIQMTQSPSSLSASVGDRVTITCKATEDIYNRLAWYQQKPGKAPKLLISGATSLETGVPSRFSGSGSGKDYTLTISSLQPEDFATYYCQQFWSAPYTFGGGTKVEIKR
notes: human IgG1 kappa; also called hu11K2
EC50 (read off the curve) (human MCP-2 [5]): ~0.3 µg/mL | EC50 (read off the curve) (human MCP-1 [3]): ~0.02 µg/mL | binding result (murine MCP-1 (JE)): binds | binding result (human MCP-3): no binding

B5: humanized 11K2 H1-L2 (antibody, human IgG1, V domains shown)
VH: QVQLVQSGAEVKKPGSSVKVSCKASGLNIKDTYMHWVRQAPGQGLEWIGRIDPANGNTKFDPKFQGRATITADTSTSTAYMELSSLRSEDTAVYYCARGVFGFFDYWGQGTTVTVSS
VL: DIQMTQSPSSLSASVGDRVTITCKATEDIYNRLAWYQQKPGKAPKLLISGATSLETGVPSRFSGSGSGTDYTLTISSLQPEDFATYYCQQFWSAPYTFGGGTKVEIKR
notes: human IgG1 kappa
EC50 (read off the curve) (human MCP-2 [5]): ~0.3 µg/mL | EC50 (read off the curve) (human MCP-1 [3]): ~0.02 µg/mL | binding result (human MCP-3): no binding

B6: humanized 11K2 H2-L1 (antibody, human IgG1, kappa, V domains shown)
VH: QVQLVQSGAEVKKPGSSVKVSCKASGLTISDTYMHWVRQAPGQGLEWMGRIDPANGNTKFDPKFQGRVTITADTSTSTAYMELSSLRSEDTAVYYCARGVFGFFDYWGQGTTVTVSS
VL: DIQMTQSPSSLSASVGDRVTITCKATEDIYNRLAWYQQKPGKAPKLLISGATSLETGVPSRFSGSGSGKDYTLTISSLQPEDFATYYCQQFWSAPYTFGGGTKVEIKR
notes: human IgG1 kappa
EC50 (read off the curve) (human MCP-2 [5]): ~0.2 µg/mL | EC50 (read off the curve) (human MCP-1 [3]): ~0.02 µg/mL | binding result (murine MCP-1 (JE)): binds | binding result (human MCP-3): no binding

B7: humanized 11K2 H2-L2 (antibody, human IgG1, V domains shown)
VH: QVQLVQSGAEVKKPGSSVKVSCKASGLTISDTYMHWVRQAPGQGLEWMGRIDPANGNTKFDPKFQGRVTITADTSTSTAYMELSSLRSEDTAVYYCARGVFGFFDYWGQGTTVTVSS
VL: DIQMTQSPSSLSASVGDRVTITCKATEDIYNRLAWYQQKPGKAPKLLISGATSLETGVPSRFSGSGSGTDYTLTISSLQPEDFATYYCQQFWSAPYTFGGGTKVEIKR
notes: human IgG1 kappa
EC50 (read off the curve) (human MCP-2 [5]): ~0.3 µg/mL | EC50 (read off the curve) (human MCP-1 [3]): ~0.02 µg/mL | binding result (human MCP-3): no binding
